Assay results: patent US20140087995A1 (published 2014)
Numbered stars: 1 amine (or outer) side, 2 acyl side, 3 side chain; on linkers, the order of the positions; unused ones are H or OH. Bridge positions count the residues as written; N and C are the ends. Side chains are listed from the residue outwards. Ends that are not written are not given here. * marks the point of attachment. C20 diacid = O=C(O)CCCCCCCCCCCCCCCCCCC(=O)*; γGlu = O=C(O)[C@H](CCC(=O)[*:2])N[*:1]; AEEA = NCCOCCOCC(=O)O

T1: human calcitonin receptor (human, UniProt P30988 25-474)
T1 sequence (looked up): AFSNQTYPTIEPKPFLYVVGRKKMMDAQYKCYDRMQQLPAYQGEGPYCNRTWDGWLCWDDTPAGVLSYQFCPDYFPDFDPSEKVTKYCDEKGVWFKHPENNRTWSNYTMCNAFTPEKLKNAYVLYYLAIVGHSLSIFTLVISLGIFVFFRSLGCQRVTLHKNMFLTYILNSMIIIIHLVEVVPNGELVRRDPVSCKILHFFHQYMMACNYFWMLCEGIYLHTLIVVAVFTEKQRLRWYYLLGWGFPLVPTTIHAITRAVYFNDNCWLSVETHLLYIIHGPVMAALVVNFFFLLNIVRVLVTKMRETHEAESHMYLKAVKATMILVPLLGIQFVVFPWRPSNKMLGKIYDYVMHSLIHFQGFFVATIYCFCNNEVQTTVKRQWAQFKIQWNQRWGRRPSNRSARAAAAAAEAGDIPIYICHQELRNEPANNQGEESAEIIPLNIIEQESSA

T2: human amylin receptor (amylin 3(a) receptor: human calcitonin receptor co-expressed with RAMP-3) (human, UniProt P30988 25-474; O60896 24-148, limits assumed)
T2 sequence (looked up) 1: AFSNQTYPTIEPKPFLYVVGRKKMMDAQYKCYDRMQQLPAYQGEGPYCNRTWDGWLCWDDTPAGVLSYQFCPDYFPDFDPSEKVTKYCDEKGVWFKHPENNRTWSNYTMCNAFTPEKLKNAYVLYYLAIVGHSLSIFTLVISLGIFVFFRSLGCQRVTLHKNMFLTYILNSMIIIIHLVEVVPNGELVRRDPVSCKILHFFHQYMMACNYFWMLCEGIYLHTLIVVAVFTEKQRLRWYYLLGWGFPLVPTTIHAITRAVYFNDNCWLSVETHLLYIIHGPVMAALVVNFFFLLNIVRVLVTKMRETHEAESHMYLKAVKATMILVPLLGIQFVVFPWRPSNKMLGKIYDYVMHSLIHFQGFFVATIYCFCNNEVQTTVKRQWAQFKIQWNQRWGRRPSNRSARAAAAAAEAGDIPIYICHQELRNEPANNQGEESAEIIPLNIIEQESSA
T2 sequence (looked up) 2: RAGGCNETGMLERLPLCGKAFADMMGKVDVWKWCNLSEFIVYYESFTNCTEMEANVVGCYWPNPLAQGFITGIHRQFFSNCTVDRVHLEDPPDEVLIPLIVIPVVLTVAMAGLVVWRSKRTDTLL


Tests used:
[1] = target: T1, human calcitonin receptor; assay: cell-based or functional assay
[2] = target: T2, human amylin receptor (amylin 3(a) …); assay: cell-based or functional assay

Binder | Ratio hCT/hAmylin funct. (hCTR EC50 against hAmylin-R EC50) [1] | hCTR funct. EC50 [1] | hAmylin-R funct. EC50 [2]
K([AEEA-γGlu-C20 diacid])CNTATCATQRLATFLRHSSPNFGAIPSSTPVGSNTY-NH2 (disulfide 2-7; N-terminus assumed; SMILES CC[C@H](C)[C@H](NC(=O)[C@H](C)NC(=O)CNC(=O)[C@H](Cc1ccccc1)NC(=O)[C@H](CC(N)=O)NC(=O)[C@@H]1CCCN1C(=O)[C@H](CO)NC(=O)[C@H](CO)NC(=O)[C@H](Cc1c[nH]cn1)NC(=O)[C@H](CCCNC(=N)N)NC(=O)[C@H](CC(C)C)NC(=O)[C@H](Cc1ccccc1)NC(=O)[C@@H](NC(=O)[C@H](C)NC(=O)[C@H](CC(C)C)NC(=O)[C@H](CCCNC(=N)N)NC(=O)[C@H](CCC(N)=O)NC(=O)[C@@H](NC(=O)[C@H](C)NC(=O)[C@@H]1CSSC[C@H](NC(=O)[C@@H](N)CCCCNC(=O)COCCOCCNC(=O)CC[C@H](NC(=O)CCCCCCCCCCCCCCCCCCC(=O)O)C(=O)O)C(=O)N[C@@H](CC(N)=O)C(=O)N[C@@H]([C@@H](C)O)C(=O)N[C@@H](C)C(=O)N[C@@H]([C@@H](C)O)C(=O)N1)[C@@H](C)O)[C@@H](C)O)C(=O)N1CCC[C@H]1C(=O)N[C@@H](CO)C(=O)N[C@@H](CO)C(=O)N[C@H](C(=O)N1CCC[C@H]1C(=O)N[C@H](C(=O)NCC(=O)N[C@@H](CO)C(=O)N[C@@H](CC(N)=O)C(=O)N[C@H](C(=O)N[C@@H](Cc1ccc(O)cc1)C(N)=O)[C@@H](C)O)C(C)C)[C@@H](C)O, also called compound 75) | 30.6 | 9.07 nM | 0.296 nM
K([γGlu-C20 diacid])CNTATCATQRLARFLRHSSPNFGAIPSSTPVGSNTY-NH2 (disulfide 2-7; N-terminus assumed; SMILES CC[C@H](C)[C@H](NC(=O)[C@H](C)NC(=O)CNC(=O)[C@H](Cc1ccccc1)NC(=O)[C@H](CC(N)=O)NC(=O)[C@@H]1CCCN1C(=O)[C@H](CO)NC(=O)[C@H](CO)NC(=O)[C@H](Cc1c[nH]cn1)NC(=O)[C@H](CCCNC(=N)N)NC(=O)[C@H](CC(C)C)NC(=O)[C@H](Cc1ccccc1)NC(=O)[C@H](CCCNC(=N)N)NC(=O)[C@H](C)NC(=O)[C@H](CC(C)C)NC(=O)[C@H](CCCNC(=N)N)NC(=O)[C@H](CCC(N)=O)NC(=O)[C@@H](NC(=O)[C@H](C)NC(=O)[C@@H]1CSSC[C@H](NC(=O)[C@@H](N)CCCCNC(=O)CC[C@H](NC(=O)CCCCCCCCCCCCCCCCCCC(=O)O)C(=O)O)C(=O)N[C@@H](CC(N)=O)C(=O)N[C@@H]([C@@H](C)O)C(=O)N[C@@H](C)C(=O)N[C@@H]([C@@H](C)O)C(=O)N1)[C@@H](C)O)C(=O)N1CCC[C@H]1C(=O)N[C@@H](CO)C(=O)N[C@@H](CO)C(=O)N[C@H](C(=O)N1CCC[C@H]1C(=O)N[C@H](C(=O)NCC(=O)N[C@@H](CO)C(=O)N[C@@H](CC(N)=O)C(=O)N[C@H](C(=O)N[C@@H](Cc1ccc(O)cc1)C(N)=O)[C@@H](C)O)C(C)C)[C@@H](C)O, also called compound 63) | 139 | 5.13 nM | 0.037 nM
K([γGlu-C20 diacid])CNTATCATQRLARFLRHSSPNFGAIPSSTNVGPNTY-NH2 (disulfide 2-7; N-terminus assumed; SMILES CC[C@H](C)[C@H](NC(=O)[C@H](C)NC(=O)CNC(=O)[C@H](Cc1ccccc1)NC(=O)[C@H](CC(N)=O)NC(=O)[C@@H]1CCCN1C(=O)[C@H](CO)NC(=O)[C@H](CO)NC(=O)[C@H](Cc1c[nH]cn1)NC(=O)[C@H](CCCNC(=N)N)NC(=O)[C@H](CC(C)C)NC(=O)[C@H](Cc1ccccc1)NC(=O)[C@H](CCCNC(=N)N)NC(=O)[C@H](C)NC(=O)[C@H](CC(C)C)NC(=O)[C@H](CCCNC(=N)N)NC(=O)[C@H](CCC(N)=O)NC(=O)[C@@H](NC(=O)[C@H](C)NC(=O)[C@@H]1CSSC[C@H](NC(=O)[C@@H](N)CCCCNC(=O)CC[C@H](NC(=O)CCCCCCCCCCCCCCCCCCC(=O)O)C(=O)O)C(=O)N[C@@H](CC(N)=O)C(=O)N[C@@H]([C@@H](C)O)C(=O)N[C@@H](C)C(=O)N[C@@H]([C@@H](C)O)C(=O)N1)[C@@H](C)O)C(=O)N1CCC[C@H]1C(=O)N[C@@H](CO)C(=O)N[C@@H](CO)C(=O)N[C@H](C(=O)N[C@@H](CC(N)=O)C(=O)N[C@H](C(=O)NCC(=O)N1CCC[C@H]1C(=O)N[C@@H](CC(N)=O)C(=O)N[C@H](C(=O)N[C@@H](Cc1ccc(O)cc1)C(N)=O)[C@@H](C)O)C(C)C)[C@@H](C)O, also called compound 65) | 38.6 | 9.33 nM | 0.242 nM
K([γGlu-C20 diacid])CNTATCATQRLANFLRHSSPNFGAIPSSTNVGHNTY-NH2 (disulfide 2-7; N-terminus assumed; SMILES CC[C@H](C)[C@H](NC(=O)[C@H](C)NC(=O)CNC(=O)[C@H](Cc1ccccc1)NC(=O)[C@H](CC(N)=O)NC(=O)[C@@H]1CCCN1C(=O)[C@H](CO)NC(=O)[C@H](CO)NC(=O)[C@H](Cc1c[nH]cn1)NC(=O)[C@H](CCCNC(=N)N)NC(=O)[C@H](CC(C)C)NC(=O)[C@H](Cc1ccccc1)NC(=O)[C@H](CC(N)=O)NC(=O)[C@H](C)NC(=O)[C@H](CC(C)C)NC(=O)[C@H](CCCNC(=N)N)NC(=O)[C@H](CCC(N)=O)NC(=O)[C@@H](NC(=O)[C@H](C)NC(=O)[C@@H]1CSSC[C@H](NC(=O)[C@@H](N)CCCCNC(=O)CC[C@H](NC(=O)CCCCCCCCCCCCCCCCCCC(=O)O)C(=O)O)C(=O)N[C@@H](CC(N)=O)C(=O)N[C@@H]([C@@H](C)O)C(=O)N[C@@H](C)C(=O)N[C@@H]([C@@H](C)O)C(=O)N1)[C@@H](C)O)C(=O)N1CCC[C@H]1C(=O)N[C@@H](CO)C(=O)N[C@@H](CO)C(=O)N[C@H](C(=O)N[C@@H](CC(N)=O)C(=O)N[C@H](C(=O)NCC(=O)N[C@@H](Cc1c[nH]cn1)C(=O)N[C@@H](CC(N)=O)C(=O)N[C@H](C(=O)N[C@@H](Cc1ccc(O)cc1)C(N)=O)[C@@H](C)O)C(C)C)[C@@H](C)O, also called compound 77) [N^ε1-[(4S)-4-carboxy-4-(19-carboxynonadecanoylamino)butanoyl]-[Arg17,Pro21,Pro27,His34]-h-amylin] | 37.3 | 5.4 nM | 0.145 nM
K([γGlu-C20 diacid])CNTATCATQRLAEFLRHSSPNFGAIPSSTNVGSRTY-NH2 (disulfide 2-7; N-terminus assumed; SMILES CC[C@H](C)[C@H](NC(=O)[C@H](C)NC(=O)CNC(=O)[C@H](Cc1ccccc1)NC(=O)[C@H](CC(N)=O)NC(=O)[C@@H]1CCCN1C(=O)[C@H](CO)NC(=O)[C@H](CO)NC(=O)[C@H](Cc1c[nH]cn1)NC(=O)[C@H](CCCNC(=N)N)NC(=O)[C@H](CC(C)C)NC(=O)[C@H](Cc1ccccc1)NC(=O)[C@H](CCC(=O)O)NC(=O)[C@H](C)NC(=O)[C@H](CC(C)C)NC(=O)[C@H](CCCNC(=N)N)NC(=O)[C@H](CCC(N)=O)NC(=O)[C@@H](NC(=O)[C@H](C)NC(=O)[C@@H]1CSSC[C@H](NC(=O)[C@@H](N)CCCCNC(=O)CC[C@H](NC(=O)CCCCCCCCCCCCCCCCCCC(=O)O)C(=O)O)C(=O)N[C@@H](CC(N)=O)C(=O)N[C@@H]([C@@H](C)O)C(=O)N[C@@H](C)C(=O)N[C@@H]([C@@H](C)O)C(=O)N1)[C@@H](C)O)C(=O)N1CCC[C@H]1C(=O)N[C@@H](CO)C(=O)N[C@@H](CO)C(=O)N[C@H](C(=O)N[C@@H](CC(N)=O)C(=O)N[C@H](C(=O)NCC(=O)N[C@@H](CO)C(=O)N[C@@H](CCCNC(=N)N)C(=O)N[C@H](C(=O)N[C@@H](Cc1ccc(O)cc1)C(N)=O)[C@@H](C)O)C(C)C)[C@@H](C)O, also called compound 51) | 14 | 5.22 nM | 0.372 nM
K([γGlu-C20 diacid])CNTATCATQRLANFLRHSSPNFGAIPSSTNVGSHTY-NH2 (disulfide 2-7; N-terminus assumed; SMILES CC[C@H](C)[C@H](NC(=O)[C@H](C)NC(=O)CNC(=O)[C@H](Cc1ccccc1)NC(=O)[C@H](CC(N)=O)NC(=O)[C@@H]1CCCN1C(=O)[C@H](CO)NC(=O)[C@H](CO)NC(=O)[C@H](Cc1c[nH]cn1)NC(=O)[C@H](CCCNC(=N)N)NC(=O)[C@H](CC(C)C)NC(=O)[C@H](Cc1ccccc1)NC(=O)[C@H](CC(N)=O)NC(=O)[C@H](C)NC(=O)[C@H](CC(C)C)NC(=O)[C@H](CCCNC(=N)N)NC(=O)[C@H](CCC(N)=O)NC(=O)[C@@H](NC(=O)[C@H](C)NC(=O)[C@@H]1CSSC[C@H](NC(=O)[C@@H](N)CCCCNC(=O)CC[C@H](NC(=O)CCCCCCCCCCCCCCCCCCC(=O)O)C(=O)O)C(=O)N[C@@H](CC(N)=O)C(=O)N[C@@H]([C@@H](C)O)C(=O)N[C@@H](C)C(=O)N[C@@H]([C@@H](C)O)C(=O)N1)[C@@H](C)O)C(=O)N1CCC[C@H]1C(=O)N[C@@H](CO)C(=O)N[C@@H](CO)C(=O)N[C@H](C(=O)N[C@@H](CC(N)=O)C(=O)N[C@H](C(=O)NCC(=O)N[C@@H](CO)C(=O)N[C@@H](Cc1c[nH]cn1)C(=O)N[C@H](C(=O)N[C@@H](Cc1ccc(O)cc1)C(N)=O)[C@@H](C)O)C(C)C)[C@@H](C)O, also called compound 60) [N^ε1-[(4S)-4-carboxy-4-(19-carboxynonadecanoylamino)butanoyl]-[Arg17,Pro21,Pro27,His35]-h-amylin] | 15.3 | 5.36 nM | 0.351 nM
